Measurements published in US10519419B2, “Method for producing culture medium composition” (NISSAN CHEMICAL CORPORATION, priority 2014, dated 2019).

What was measured:
[1] = tested on: HeLa cell spheres; experiment: Cell suspension test with HeLa cell spheres; type: cell-based, human; details: DMEM/F-12, 37°C, 1 hr
Description: Human cervical cancer cell line HeLa (manufactured by DS PHARMA BIOMEDICAL CO., LTD.) was suspended in EMEM medium containing 10% (v/v) fetal bovine serum (manufactured by WAKO) at 250000 cells/mL, the suspension (10 mL) was plated on EZ SPHERE (manufactured by ASAHI GLASS CO., LTD.), and cultured in a CO2 incubator (5% CO2) for 3 days. The obtained suspension (10 mL) of spheres (diameter 100-200 μm) was centrifuged (200 G, 5 min) to allow for sphere sedimentation, and the supernatant was removed to give a sphere suspension (1.0 mL). Successively, the deacylated gellan gum-containing medium prepared above was placed in a 1.5 mL Eppendorf tube by 1.0 mL, and a HeLa cell sphere suspension (10 μL) was further added. The cell aggregate was dispersed by tapping, incubated at 37° C., and the dispersion state of the cells 1 hr later was visually observed.
In the same manner as in Reference Experimental Example 2, spheres of HeLa cells were formed, and several tens of the spheres were added to each medium (1 mL) prepared above, the mixture was stood still at 37° C. for 1 hr, and the suspended state of the sphere cells was visually observed. […] Furthermore, it was confirmed that addition of an equal amount of the medium to the cell suspension and centrifugation (300 to 400 G, 5 min) thereof result in sedimentation and recovery of the spheres of HeLa cells.
In the same manner as in Reference Experimental Example 2, spheres of HeLa cells were produced, and several tens of spheres were added to each medium (1 mL) prepared above, the mixture was stood still at 37° C. for 1 hr, and the suspended state of the sphere cells was visually observed. […] Furthermore, it was confirmed that centrifugation (200 G, 5 min) of the cell suspension containing 0.1% (w/v) diutan gum result in sedimentation and recovery of the spheres of HeLa cells.

[2] = State and viscosity measurement of medium composition (E type viscometer); type: physicochemical; details: DMEM/F-12; for viscosity: 37°C, 100 rpm
Description: The viscosity of the liquid containing the structure can be measured, for example, by the method described in the below-mentioned Examples. Specifically, it can be measured under 37° C. conditions and using an E-type viscosity meter (manufactured by Toki Sangyo Co., Ltd., TV-22 type viscosity meter, model: TVE-22L, corn roter: standard roter 1° 34′×R24, rotation number 100 rpm).
This aqueous solution was allowed to cool to room temperature with stirring, and sterilized at 121° C. for 20 min in an autoclave. […] The viscosity of the medium compositions was measured using an E type viscometer (manufactured by Toki Sangyo Co., Ltd., Viscometer TVE-22L, standard roter 1° 34′×R24) under 37° C. condition at 100 rpm for 5 min.
The medium compositions prepared above were subjected to a suspension test of HeLa cell spheres and a viscosity measurement, in the same manner as with the deacylated gellan gum-containing medium. The viscosity of 1.0% (w/v) methylcellulose was measured at 50 rpm due to the measurement range of the apparatus.

collagen
HeLa cell suspension/sedimentation ([1]; collagen 0.01% (w/v)): sedimentation
HeLa cell suspension/sedimentation ([1]; collagen 0.05% (w/v)): suspension
HeLa cell suspension/sedimentation ([1]; collagen 0.1% (w/v)): suspension
HeLa cell suspension/sedimentation ([1]; collagen 0.2% (w/v)): suspension
state ([2]; collagen 0.01% (w/v)): liquid
viscosity ([2]; collagen 0.01% (w/v)): 1.18 mPa · s
state ([2]; collagen 0.05% (w/v)): liquid/solid
viscosity ([2]; collagen 0.05% (w/v)): unmeasurable
state ([2]; collagen 0.1% (w/v)): solid (gel)
viscosity ([2]; collagen 0.1% (w/v)): unmeasurable
state ([2]; collagen 0.2% (w/v)): solid (gel)
viscosity ([2]; collagen 0.2% (w/v)): unmeasurable
